# Laboratory results as given in IntAct's records for PubMed 23856421.
# B1: Dolichol-phosphate mannosyltransferase subunit 1 (Homo sapiens), O60762 (parent)
# chain: MASLEVSRSPRRSRRELEVRSPRQNKYSVLLPTYNERENLPLIVWLLVKSFSESGINYEIIIIDDGSPDGTRDVAEQLEKIYGSDRILLRPREKKLGLGTAYIHGMKHATGNYIIIMDADLSHHPKFIPEFIRKQKEGNFDIVSGTRYKGNGGVYGWDLKRKIISRGANFLTQILLRPGASDLTGSFRLYRKEVLEKLIEKCVSKGYVFQMEMIVRARQLNYTIGEVPISFVDRVYGESKLGGNEIVSFLKGLLTLFATT
# partner: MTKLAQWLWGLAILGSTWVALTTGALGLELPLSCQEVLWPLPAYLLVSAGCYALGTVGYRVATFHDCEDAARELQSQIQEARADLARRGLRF
# Variants of: B1
# Settings: with dpm3_human DPM3, Q9P2X0
row,Variant,effect of a mutation on the interaction
1,G152V,disrupting interaction
